Two substances from US6465423 can be followed below.

Assay [1] has as its target endogenous BP-53 of human serum (human) (UniProt P17936). Description: DEAE-Sephadex peaks A and B mixed for 60 min at 22° C, Superose-12, BP-53 RIA.
The target of assay [2] is IGF affinity column loaded with BP-53 (BP-53 non-covalently bound to agarose-IGF) (human) (UniProt P17936). Description: affinity chromatography of DEAE-Sephadex ALS fractions on the IGF column loaded with BP-53.
Assay [3] has as its target acid-labile sub-unit (ALS) of insulin like growth factor binding protein complex (human) (UniProt P35858). Description: competition of acidified-neutralized serum with cross-linked BP-53-IGF-I tracer in the routine ALS assay.

Chain of acid-labile sub-unit (ALS) of insulin like growth factor binding protein complex (human) (P35858 28-605, one chain of several): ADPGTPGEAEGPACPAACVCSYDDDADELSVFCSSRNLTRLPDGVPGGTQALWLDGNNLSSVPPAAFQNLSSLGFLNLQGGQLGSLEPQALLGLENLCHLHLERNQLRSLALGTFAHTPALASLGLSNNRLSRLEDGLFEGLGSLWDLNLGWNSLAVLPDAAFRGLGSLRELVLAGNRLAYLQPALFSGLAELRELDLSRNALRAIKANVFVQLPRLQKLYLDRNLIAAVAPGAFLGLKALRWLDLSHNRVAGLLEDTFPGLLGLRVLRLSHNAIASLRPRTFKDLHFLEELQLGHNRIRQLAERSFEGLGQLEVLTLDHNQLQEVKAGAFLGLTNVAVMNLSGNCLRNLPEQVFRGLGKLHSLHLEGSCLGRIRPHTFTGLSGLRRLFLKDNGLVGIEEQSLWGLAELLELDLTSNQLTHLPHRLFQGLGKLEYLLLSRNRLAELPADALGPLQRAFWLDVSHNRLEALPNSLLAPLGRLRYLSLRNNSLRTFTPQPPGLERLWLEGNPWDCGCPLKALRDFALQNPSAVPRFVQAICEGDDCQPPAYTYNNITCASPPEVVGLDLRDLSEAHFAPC
Chain of acid-labile sub-unit (ALS) of insulin like growth factor binding protein complex (P35858 28-605, one chain of several): as above

On to “acid-labile sub-unit (ALS) of insulin like growth factor binding protein complex (from UniProt P35858 28-605)”, for which the percent of BP-53 activity shifted from 30-60K to 150K in assay [1] is more than 50%. Also, the percent of ALS activity retained in assay [2] was more than 90%.
Turning to “endogenous BP-53 of human serum (from UniProt P17936 28-291)”, in assay [3], the IC50 is 0.2 to 0.25 µg/mL and the concentration for full displacement turned out to be 1 µg/mL.

Broadly, the IC50 is the concentration at which inhibition is half-maximal. A high value points to lower potency.
